From paper PMC9352680, “A comprehensive thermodynamic model for RNA binding by the Saccharomyces cerevisiae Pumilio protein PUF4”

T1: PUF4 RNA-binding domain (Saccharomyces cerevisiae, UniProt P25339 537-888)
T1 sequence: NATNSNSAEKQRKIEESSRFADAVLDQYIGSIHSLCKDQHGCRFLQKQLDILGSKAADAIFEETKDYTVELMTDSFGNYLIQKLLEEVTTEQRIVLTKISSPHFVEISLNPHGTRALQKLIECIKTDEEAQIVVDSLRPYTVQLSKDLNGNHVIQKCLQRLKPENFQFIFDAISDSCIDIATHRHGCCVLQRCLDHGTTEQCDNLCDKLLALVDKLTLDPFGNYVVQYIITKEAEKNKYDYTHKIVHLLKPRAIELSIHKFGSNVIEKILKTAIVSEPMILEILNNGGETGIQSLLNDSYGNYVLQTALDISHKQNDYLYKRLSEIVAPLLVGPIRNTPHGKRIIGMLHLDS

B1: Ic_S4_P4E.1_K4.1_C4.1_H4.1_A4.1_[T5G]_[A6T]_[T7C]_F4.1_[T8G]_[A9T]_T4.1 (ssRNA)
RNA: UUUGACAACUGAUCGUUCUUUCUUGUAGUCGUUUCUUUCUCGAUCAGUUGUCUUU
B2: Ic_S4_P4E.1_K4.1_C4.1_H4.1_A4.1_[T5G]_[A6T]_F4.1_[A9T]_T4.1 (ssRNA)
RNA: UUUGACAACUGAUCGUUCUUUCUUGUAGUUUUUUCUUUCUCGAUCAGUUGUCUUU
B3: Ic_S4_P4E.1_K4.1_C4.1_H4.1_A4.1_[T5C]_[A6G]_[T7G]_F4.1_[A9T]_T4.1 (ssRNA)
RNA: UUUGACAACUGAUCGUUCUUUCUUGUACGGUUUUCUUUCUCGAUCAGUUGUCUUU
B4: Ic_S4_P4E.1_K4.1_C4.1_H4.1_A4.1_[T5G]_[A6T]_[T7C]_F4.1_[A9G]_T4.1 (ssRNA)
RNA: UUUGACAACUGAUCGUUCUUUCUUGUAGUCUGUUCUUUCUCGAUCAGUUGUCUUU
B5: Ic_S4_P4E.1_K4.1_C4.1_H4.1_A4.1_[T5G]_[A6T]_F4.1_[A9G]_T4.1 (ssRNA)
RNA: UUUGACAACUGAUCGUUCUUUCUUGUAGUUUGUUCUUUCUCGAUCAGUUGUCUUU
B6: Ic_S4_P4E.1_K4.1_C4.1_H4.1_A4.1_[T5C]_[A6C]_[T7G]_F4.1_[T8G]_[A9T]_T4.1 (ssRNA)
RNA: UUUGACAACUGAUCGUUCUUUCUUGUACCGGUUUCUUUCUCGAUCAGUUGUCUUU
B7: Ic_S4_P4E.1_K4.1_C4.1_H4.1_A4.1_[T5G]_[A6T]_F4.1_[T8C]_[A9T]_T4.1 (ssRNA)
RNA: UUUGACAACUGAUCGUUCUUUCUUGUAGUUCUUUCUUUCUCGAUCAGUUGUCUUU
B8: Ic_S4_P4E.1_K4.1_C4.1_H4.1_A4.1_[T5G]_[A6T]_[T7C]_F4.1_[A9C]_T4.1 (ssRNA)
RNA: UUUGACAACUGAUCGUUCUUUCUUGUAGUCUCUUCUUUCUCGAUCAGUUGUCUUU
B9: Ic_S4_P4E.1_K4.1_C4.1_H4.1_A4.1_[T5G]_[A6T]_[T7A]_F4.1_[T8A]_T4.1 (ssRNA)
RNA: UUUGACAACUGAUCGUUCUUUCUUGUAGUAAAUUCUUUCUCGAUCAGUUGUCUUU
B10: Ic_S4_P4E.1_K4.1_C4.1_H4.1_A4.1_[T5C]_[A6G]_F4.1_[T8C]_[A9C]_T4.1 (ssRNA)
RNA: UUUGACAACUGAUCGUUCUUUCUUGUACGUCCUUCUUUCUCGAUCAGUUGUCUUU
B11: Ic_S4_P4E.1_K4.1_C4.1_H4.1_A4.1_[T5G]_[A6T]_[T7C]_F4.1_[T8C]_[A9G]_T4.1 (ssRNA)
RNA: UUUGACAACUGAUCGUUCUUUCUUGUAGUCCGUUCUUUCUCGAUCAGUUGUCUUU
B12: Ic_S4_P4E.1_K4.1_C4.1_H4.1_A4.1_[T5C]_[A6G]_[T7C]_F4.1_[T8A]_T4.1 (ssRNA)
RNA: UUUGACAACUGAUCGUUCUUUCUUGUACGCAAUUCUUUCUCGAUCAGUUGUCUUU
B13: Ic_S4_P4E.1_K4.1_C4.1_H4.1_A4.1_[T5C]_[A6G]_[T7C]_F4.1_[T8C]_[A9C]_T4.1 (ssRNA)
RNA: UUUGACAACUGAUCGUUCUUUCUUGUACGCCCUUCUUUCUCGAUCAGUUGUCUUU
B14: Ic_S4_P4E.1_K4.1_C4.1_H4.1_A4.1_[T5C]_[A6G]_[T7A]_F4.1_[T8C]_[A9C]_T4.1 (ssRNA)
RNA: UUUGACAACUGAUCGUUCUUUCUUGUACGACCUUCUUUCUCGAUCAGUUGUCUUU
B15: Ic_S4_P4E.1_K4.1_C4.1_H4.1_A4.1_[T5C]_[A6G]_F4.1_[T8G]_[A9T]_T4.1 (ssRNA)
RNA: UUUGACAACUGAUCGUUCUUUCUUGUACGUGUUUCUUUCUCGAUCAGUUGUCUUU
B16: Ic_S4_P4E.1_K4.1_C4.1_H4.1_A4.1_[T5G]_[A6T]_[T7A]_F4.1_[A9C]_T4.1 (ssRNA)
RNA: UUUGACAACUGAUCGUUCUUUCUUGUAGUAUCUUCUUUCUCGAUCAGUUGUCUUU
B17: Ic_S4_P4E.1_K4.1_C4.1_H4.1_A4.1_[T5C]_[A6G]_F4.1_[T8C]_[A9G]_T4.1 (ssRNA)
RNA: UUUGACAACUGAUCGUUCUUUCUUGUACGUCGUUCUUUCUCGAUCAGUUGUCUUU
B18: Ic_S4_P4E.1_K4.1_C4.1_H4.1_A4.1_[T5G]_[A6T]_[T7A]_F4.1_T4.1 (ssRNA)
RNA: UUUGACAACUGAUCGUUCUUUCUUGUAGUAUAUUCUUUCUCGAUCAGUUGUCUUU
B19: Ic_S4_P4E.1_K4.1_C4.1_H4.1_A4.1_[T5G]_[A6T]_F4.1_[T8A]_[A9C]_T4.1 (ssRNA)
RNA: UUUGACAACUGAUCGUUCUUUCUUGUAGUUACUUCUUUCUCGAUCAGUUGUCUUU
B20: Ic_S4_P4E.1_K4.1_C4.1_H4.1_A4.1_[T5G]_[A6T]_F4.1_[T8G]_[A9T]_T4.1 (ssRNA)
RNA: UUUGACAACUGAUCGUUCUUUCUUGUAGUUGUUUCUUUCUCGAUCAGUUGUCUUU
B21: Ic_S4_P4E.1_K4.1_C4.1_H4.1_A4.1_[T5C]_[A6G]_[T7A]_F4.1_[T8C]_T4.1 (ssRNA)
RNA: UUUGACAACUGAUCGUUCUUUCUUGUACGACAUUCUUUCUCGAUCAGUUGUCUUU
B22: Ic_S4_P4E.1_K4.1_C4.1_H4.1_A4.1_[T5C]_[A6G]_[T7C]_F4.1_[T8G]_[A9G]_T4.1 (ssRNA)
RNA: UUUGACAACUGAUCGUUCUUUCUUGUACGCGGUUCUUUCUCGAUCAGUUGUCUUU
B23: Ic_S4_P4E.1_K4.1_C4.1_H4.1_A4.1_[T5G]_[A6T]_[T7A]_F4.1_[T8C]_[A9T]_T4.1 (ssRNA)
RNA: UUUGACAACUGAUCGUUCUUUCUUGUAGUACUUUCUUUCUCGAUCAGUUGUCUUU
B24: Ic_S4_P4E.1_K4.1_C4.1_H4.1_A4.1_[T5G]_[A6T]_[T7A]_F4.1_[T8G]_[A9T]_T4.1 (ssRNA)
RNA: UUUGACAACUGAUCGUUCUUUCUUGUAGUAGUUUCUUUCUCGAUCAGUUGUCUUU
B25: Ic_S4_P4E.1_K4.1_C4.1_H4.1_A4.1_[T5C]_[A6G]_F4.1_[T8A]_[A9C]_T4.1 (ssRNA)
RNA: UUUGACAACUGAUCGUUCUUUCUUGUACGUACUUCUUUCUCGAUCAGUUGUCUUU
B26: Ic_S4_P4E.1_K4.1_C4.1_H4.1_A4.1_[T5C]_[A6G]_F4.1_[A9T]_T4.1 (ssRNA)
RNA: UUUGACAACUGAUCGUUCUUUCUUGUACGUUUUUCUUUCUCGAUCAGUUGUCUUU
B27: Ic_S4_P4E.1_K4.1_C4.1_H4.1_A4.1_[T5C]_[A6C]_[T7G]_F4.1_[T8C]_[A9G]_T4.1 (ssRNA)
RNA: UUUGACAACUGAUCGUUCUUUCUUGUACCGCGUUCUUUCUCGAUCAGUUGUCUUU
B28: Ic_S4_P4E.1_K4.1_C4.1_H4.1_A4.1_[T5G]_[A6T]_[T7C]_F4.1_[T8C]_[A9T]_T4.1 (ssRNA)
RNA: UUUGACAACUGAUCGUUCUUUCUUGUAGUCCUUUCUUUCUCGAUCAGUUGUCUUU
B29: Ic_S4_P4E.1_K4.1_C4.1_H4.1_A4.1_[T5C]_[A6G]_[T7G]_F4.1_[A9C]_T4.1 (ssRNA)
RNA: UUUGACAACUGAUCGUUCUUUCUUGUACGGUCUUCUUUCUCGAUCAGUUGUCUUU
B30: Ic_S4_P4E.1_K4.1_C4.1_H4.1_A4.1_[T5G]_[A6T]_[T7A]_F4.1_[A9G]_T4.1 (ssRNA)
RNA: UUUGACAACUGAUCGUUCUUUCUUGUAGUAUGUUCUUUCUCGAUCAGUUGUCUUU
B31: Ic_S4_P4E.1_K4.1_C4.1_H4.1_A4.1_[T5C]_[A6G]_[T7C]_F4.1_[T8A]_[A9G]_T4.1 (ssRNA)
RNA: UUUGACAACUGAUCGUUCUUUCUUGUACGCAGUUCUUUCUCGAUCAGUUGUCUUU
B32: Ic_S4_P4E.1_K4.1_C4.1_H4.1_A4.1_[T5G]_[A6T]_[T7A]_F4.1_[A9T]_T4.1 (ssRNA)
RNA: UUUGACAACUGAUCGUUCUUUCUUGUAGUAUUUUCUUUCUCGAUCAGUUGUCUUU
B33: Ic_S4_P4E.1_K4.1_C4.1_H4.1_A4.1_[T5C]_[A6G]_[T7C]_F4.1_[T8G]_[A9T]_T4.1 (ssRNA)
RNA: UUUGACAACUGAUCGUUCUUUCUUGUACGCGUUUCUUUCUCGAUCAGUUGUCUUU
B34: Ic_S4_P4E.1_K4.1_C4.1_H4.1_A4.1_[T5C]_[A6G]_F4.1_[T8A]_[A9T]_T4.1 (ssRNA)
RNA: UUUGACAACUGAUCGUUCUUUCUUGUACGUAUUUCUUUCUCGAUCAGUUGUCUUU
B35: Ic_S4_P4E.1_K4.1_C4.1_H4.1_A4.1_[T5C]_[A6G]_[T7G]_F4.1_[T8C]_[A9T]_T4.1 (ssRNA)
RNA: UUUGACAACUGAUCGUUCUUUCUUGUACGGCUUUCUUUCUCGAUCAGUUGUCUUU
B36: Ic_S4_P4E.1_K4.1_C4.1_H4.1_A4.1_[T5G]_[A6T]_[T7C]_F4.1_[T8C]_T4.1 (ssRNA)
RNA: UUUGACAACUGAUCGUUCUUUCUUGUAGUCCAUUCUUUCUCGAUCAGUUGUCUUU
B37: Ic_S4_P4E.1_K4.1_C4.1_H4.1_A4.1_[T5G]_[A6T]_[T7A]_F4.1_[T8A]_[A9C]_T4.1 (ssRNA)
RNA: UUUGACAACUGAUCGUUCUUUCUUGUAGUAACUUCUUUCUCGAUCAGUUGUCUUU
B38: Ic_S4_P4E.1_K4.1_C4.1_H4.1_A4.1_[T5G]_[A6T]_[T7A]_F4.1_[T8C]_[A9G]_T4.1 (ssRNA)
RNA: UUUGACAACUGAUCGUUCUUUCUUGUAGUACGUUCUUUCUCGAUCAGUUGUCUUU
B39: Ic_S4_P4E.1_K4.1_C4.1_H4.1_A4.1_[T5C]_[A6G]_[T7C]_F4.1_T4.1 (ssRNA)
RNA: UUUGACAACUGAUCGUUCUUUCUUGUACGCUAUUCUUUCUCGAUCAGUUGUCUUU
B40: Ic_S4_P4E.1_K4.1_C4.1_H4.1_A4.1_[T5C]_[A6C]_[T7G]_F4.1_[T8C]_[A9C]_T4.1 (ssRNA)
RNA: UUUGACAACUGAUCGUUCUUUCUUGUACCGCCUUCUUUCUCGAUCAGUUGUCUUU
B41: Ic_S4_P4E.1_K4.1_C4.1_H4.1_A4.1_[T5G]_[A6T]_[T7C]_F4.1_[T8C]_[A9C]_T4.1 (ssRNA)
RNA: UUUGACAACUGAUCGUUCUUUCUUGUAGUCCCUUCUUUCUCGAUCAGUUGUCUUU

Each binder was assayed against T1, PUF4 RNA-binding domain (assay: Mg; RNA-MaP; 20 mM Na-HEPES pH 7.4, 30 mM KOAc, 0.75 mM MgCl2, 0.1% Tween-20, 5% glycerol, 0.1 mg/mL BSA, 2 mM DTT; 25 C; 0.0125-409.6 nM protein). Details: tags: N-His6-TEV cleaved; C-SNAP kept, Cy3B-labelled; label: tethered on chip by stalled RNA polymerase.

Binder | Kd
UCUCUUUGCAUAUUAUCUCUU (ssRNA) [Ia_S1_P4E.1_K4.1_C4.1_H4.1_[T3C]_A4.1_F4.1_T4.1] | 76.5 nM
UCUCUUUGUACAUGAUCUCUU (ssRNA) [Ic_S1_P4E.1_K4.1_C4.1_H4.1_A4.1_[T5C]_F4.1_[T8G]_T4.1] | 20.2 nM
B1 | 616 nM
B2 | 55.8 nM
B3 | 158 nM
B4 | 166 nM
B5 | 65 nM
B6 | 2190 nM
B7 | 96 nM
B8 | 155 nM
B9 | 445 nM
B10 | 35 nM
B11 | 701 nM
B12 | 657 nM
B13 | 142 nM
B14 | 994 nM
B15 | 33.7 nM
B16 | 173 nM
B17 | 395 nM
B18 | 2.95 nM
B19 | 875 nM
B20 | 291 nM
B21 | 436 nM

Binder | Kd
B22 | 1800 nM
B23 | 285 nM
B24 | 649 nM
B25 | 316 nM
B26 | 11.9 nM
B27 | 827 nM
B28 | 194 nM
B29 | 514 nM
B30 | 37.3 nM
B31 | 1470 nM
B32 | 40.6 nM
B33 | 400 nM
B34 | 30.2 nM
B35 | 488 nM
B36 | 445 nM
B37 | 977 nM
B38 | 688 nM
B39 | 2.22 nM
B40 | 973 nM
B41 | 514 nM
UCUCUUUGUCUAUUUUCUCUU (ssRNA) [Ib_S1_P4E.1_K4.1_C4.1_H4.1_[A4C]_A4.1_F4.1_[A9T]_T4.1] | 807 nM
UCUCUUUGUGUAUUUUCUCUU (ssRNA) [Ib_S1_P4E.1_K4.1_C4.1_H4.1_[A4G]_A4.1_F4.1_[A9T]_T4.1] | 33.2 nM
UCUCUUUGUUUAUUUUCUCUU (ssRNA) [Ib_S1_P4E.1_K4.1_C4.1_H4.1_[A4T]_A4.1_F4.1_[A9T]_T4.1] | 353 nM
